Test results taken from patent US20250051476A1 (ABDERA THERAPEUTICS, published 2025).
Positions count from the first letter of the chain named. Where two headings read alike, the source gives them in different places. Each block holds one binder with its values, some of them ahead of it.

Assays:
human DLL3 = target: T1, human DLL3 (human, UniProt Q9NYJ7 27-492, limits assumed); assay: ELISA
T1 construct: also called hDLL3; Delta-like protein 3
T1 sequence (looked up): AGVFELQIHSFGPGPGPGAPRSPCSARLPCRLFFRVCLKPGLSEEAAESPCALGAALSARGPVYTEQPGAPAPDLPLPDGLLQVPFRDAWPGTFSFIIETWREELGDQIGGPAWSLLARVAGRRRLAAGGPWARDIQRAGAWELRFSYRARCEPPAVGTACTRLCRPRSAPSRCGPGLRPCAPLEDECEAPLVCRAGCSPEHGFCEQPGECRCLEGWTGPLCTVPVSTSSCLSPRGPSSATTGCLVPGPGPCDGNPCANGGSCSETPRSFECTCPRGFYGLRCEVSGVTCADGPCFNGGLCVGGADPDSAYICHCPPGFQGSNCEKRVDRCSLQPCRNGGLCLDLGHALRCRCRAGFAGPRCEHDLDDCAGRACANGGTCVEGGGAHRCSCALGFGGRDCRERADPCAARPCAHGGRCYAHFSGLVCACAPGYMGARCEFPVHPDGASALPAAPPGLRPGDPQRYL

mouse DLL3 = target: T2, mouse DLL3 (mouse, UniProt O88516 25-477, limits assumed); assay: ELISA
T2 construct: also called mDLL3; murine DLL3
T2 sequence (looked up): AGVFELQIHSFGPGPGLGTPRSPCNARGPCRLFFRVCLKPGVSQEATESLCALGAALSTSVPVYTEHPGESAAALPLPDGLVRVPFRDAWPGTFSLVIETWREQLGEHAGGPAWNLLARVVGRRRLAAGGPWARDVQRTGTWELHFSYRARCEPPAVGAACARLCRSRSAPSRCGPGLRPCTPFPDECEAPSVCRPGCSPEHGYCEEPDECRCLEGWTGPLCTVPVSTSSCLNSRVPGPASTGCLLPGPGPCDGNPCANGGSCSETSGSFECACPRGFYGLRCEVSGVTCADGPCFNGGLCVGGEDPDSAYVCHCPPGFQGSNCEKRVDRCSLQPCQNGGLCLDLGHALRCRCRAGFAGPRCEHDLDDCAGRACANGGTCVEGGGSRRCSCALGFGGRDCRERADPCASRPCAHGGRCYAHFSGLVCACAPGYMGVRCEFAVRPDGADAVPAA

[1] = target: T3, DLL3 on cells (SHP-77, NCI-H82, HEK-DLL3, membrane proteome array cells) (human, UniProt Q9NYJ7 27-618); assay: flow cytometry on SHP-77 cells, Geomeans RL1-H
T3 construct: whole, on cells; also called hDLL3
T3 sequence (looked up): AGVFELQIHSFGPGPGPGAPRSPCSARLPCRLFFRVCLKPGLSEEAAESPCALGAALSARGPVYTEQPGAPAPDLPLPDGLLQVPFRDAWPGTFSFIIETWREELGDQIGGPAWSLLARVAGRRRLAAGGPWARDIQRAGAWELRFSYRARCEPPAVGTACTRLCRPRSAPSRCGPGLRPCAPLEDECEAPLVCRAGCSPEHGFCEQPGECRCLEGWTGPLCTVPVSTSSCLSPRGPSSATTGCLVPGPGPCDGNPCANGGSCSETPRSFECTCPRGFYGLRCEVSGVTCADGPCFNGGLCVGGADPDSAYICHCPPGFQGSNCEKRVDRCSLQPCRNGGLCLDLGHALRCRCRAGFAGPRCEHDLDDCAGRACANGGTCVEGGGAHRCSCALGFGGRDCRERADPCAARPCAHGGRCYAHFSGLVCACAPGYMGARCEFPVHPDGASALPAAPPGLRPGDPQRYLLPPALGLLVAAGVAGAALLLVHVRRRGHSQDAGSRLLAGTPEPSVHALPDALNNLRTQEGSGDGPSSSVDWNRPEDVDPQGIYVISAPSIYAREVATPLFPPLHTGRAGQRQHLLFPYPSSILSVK

[2] = target: T3, DLL3 on cells (SHP-77, NCI-H82, …); assay: flow cytometry on SHP-77 cells, Geomeans RL1-H; remark: listed apart in the source

B1: 100_zu4 (Fc fusion)
chain: QVQLVESGGGLVQPGGSLRLSCAASGIVFNSDVMGWYRQAPGQPRELVATITGGGSTNYATSVKGRFTISRDNSKNTLYLQMNSLRAEDTAVYYCAARRGDSMLAFWGQGTLVTVSSEPKSSDKTHTCPPCPAPEAEGAPSVFLFPPKPKDTLMISRTPEVTCVVVDVSHEDPEVKFNWYVDGVEVHNAKTKPREEQYNSTYRVVSVLTVLHQDWLNGKEYKCKVSNKALPSSIEKTISKAKGQPREPQVYTLPPSREEMTKNQVSLTCLVKGFYPSDIAVEWESNGQPENNYKTTPPVLDSDGSFFLYSKLTVDKSRWQQGNVFSCSVMHEALHNQYTQKSLSLSPG
notes: Humanized VHH-Fc
binding result (human DLL3): no binding | binding result (mouse DLL3): no binding

B2: 100_zu3 (Fc fusion)
chain: B1 chain with P44G, R45L
notes: Humanized VHH-Fc
binding result (human DLL3): no binding | binding result (mouse DLL3): no binding

B5: 107_zu4 (Fc fusion)
chain: QVQLVESGGGLVQPGGSLRLSCAASDRTFSSYAVGWFRQAPGQEREFVAAISWNGGRTLYTDSVTGRFTISRDNSKNTLYLQMNSLRAEDTAVYYCAARPAAPTRRLEYDYWGQGTLVTVSSEPKSSDKTHTCPPCPAPEAEGAPSVFLFPPKPKDTLMISRTPEVTCVVVDVSHEDPEVKFNWYVDGVEVHNAKTKPREEQYNSTYRVVSVLTVLHQDWLNGKEYKCKVSNKALPSSIEKTISKAKGQPREPQVYTLPPSREEMTKNQVSLTCLVKGFYPSDIAVEWESNGQPENNYKTTPPVLDSDGSFFLYSKLTVDKSRWQQGNVFSCSVMHEALHNQYTQKSLSLSPG
notes: Humanized VHH-Fc
binding result (human DLL3): binds | binding result [1]: binds

B6: 107_zu3 (Fc fusion)
chain: B5 chain with E44G
notes: Humanized VHH-Fc
binding result (human DLL3): binds | binding result [1]: binds

B7: 107_zu5 (Fc fusion)
chain: B5 chain with Q43K
notes: Humanized VHH-Fc
binding result (human DLL3): binds | binding result [1]: binds

B11: 126_zu4 (Fc fusion)
chain: QVQLVESGGGLVQPGGSLRLSCAASGITFSMYSMSWYRQAPGQQRELVAATTTFGSTNYADSVKGRFTISRDNSKNTLYLQMNSLRAEDTAVYYCAARFTSEEYWGQGTLVTVSSEPKSSDKTHTCPPCPAPEAEGAPSVFLFPPKPKDTLMISRTPEVTCVVVDVSHEDPEVKFNWYVDGVEVHNAKTKPREEQYNSTYRVVSVLTVLHQDWLNGKEYKCKVSNKALPSSIEKTISKAKGQPREPQVYTLPPSREEMTKNQVSLTCLVKGFYPSDIAVEWESNGQPENNYKTTPPVLDSDGSFFLYSKLTVDKSRWQQGNVFSCSVMHEALHNQYTQKSLSLSPG
notes: Humanized VHH-Fc
binding result (mouse DLL3): no binding | EC50 (read off the curve) [1]: ~0.1 nM

B13: 126_zu1 (Fc fusion)
chain: B11 chain with Y37F, Q44G, R45L, L47A
notes: Humanized VHH-Fc
binding result (human DLL3): binds | binding result (mouse DLL3): no binding | binding result [1]: binds

B15: 186 (Fc fusion)
chain: QVQVVESGGGLVQPGGSLTLSCAASGFDFSTYTVNWYRQAPGKEREKVARISSTGTTTNYANSAKGRFTLSRDNAKNRVYLQMNNLKPEDTAVYFCNFERFDSNYWGQGTQVTVSSEPKSSDKTHTCPPCPAPEAEGAPSVFLFPPKPKDTLMISRTPEVTCVVVDVSHEDPEVKFNWYVDGVEVHNAKTKPREEQYNSTYRVVSVLTVLHQDWLNGKEYKCKVSNKALPSSIEKTISKAKGQPREPQVYTLPPSREEMTKNQVSLTCLVKGFYPSDIAVEWESNGQPENNYKTTPPVLDSDGSFFLYSKLTVDKSRWQQGNVFSCSVMHEALHNQYTQKSLSLSPG
notes: Parental camelid VHH-Fc
EC50 (read off the curve) [2]: ~0.1 nM

More lines, now with the values ahead:

binding result (human DLL3): no binding | binding result (mouse DLL3): no binding
B3: 100_zu5 (Fc fusion)
chain: B1 chain with A40V, Q43K
notes: Humanized VHH-Fc

binding result (human DLL3): no binding | binding result (mouse DLL3): no binding
B4: 100_zu2 (Fc fusion)
chain: B1 chain with Y37F, P44G, R45L
notes: Humanized VHH-Fc

binding result (human DLL3): no binding | binding result (mouse DLL3): no binding
B8: 24_zu2 (Fc fusion)
chain: QVQLVESGGGLVQPGGSLRLSCAASGFTFSSYRINWFRQAPGQGLELVASITDTGSTNYADSVKGRFTISRDNSKNTLYLQMNSLRAEDTAVYYCAAPTIAAYWGQGTLVTVSSEPKSSDKTHTCPPCPAPEAEGAPSVFLFPPKPKDTLMISRTPEVTCVVVDVSHEDPEVKFNWYVDGVEVHNAKTKPREEQYNSTYRVVSVLTVLHQDWLNGKEYKCKVSNKALPSSIEKTISKAKGQPREPQVYTLPPSREEMTKNQVSLTCLVKGFYPSDIAVEWESNGQPENNYKTTPPVLDSDGSFFLYSKLTVDKSRWQQGNVFSCSVMHEALHNQYTQKSLSLSPG
notes: Humanized VHH-Fc

binding result (human DLL3): no binding | binding result (mouse DLL3): no binding
B9: 24_zu3 (Fc fusion)
chain: B8 chain with F37Y
notes: Humanized VHH-Fc

binding result (human DLL3): no binding | binding result (mouse DLL3): no binding
B10: 24_zu5 (Fc fusion)
chain: B8 chain with F37Y, A40P, Q43K, L45R, A49G
notes: Humanized VHH-Fc

binding result (mouse DLL3): no binding | EC50 (read off the curve) [1]: ~0.1 nM
B12: 126_zu5 (Fc fusion)
chain: B11 chain with A40P, Q43K
notes: Humanized VHH-Fc

binding result (mouse DLL3): no binding | EC50 (read off the curve) [1]: ~0.1 nM
B14: 126_zu3 (Fc fusion)
chain: B11 chain with Q44G, R45L
notes: Humanized VHH-Fc

binding result (mouse DLL3): no binding | EC50 (read off the curve) [2]: ~0.3 nM
B16: 186_zu1 (Fc fusion)
chain: QVQLVESGGGLVQPGGSLRLSCAASGFDFSTYTVNWFRQAPGQGLEAVARISSTGTTTNYANSAKGRFTISRDNSKNTLYLQMNSLRAEDTAVYYCAAERFDSNYWGQGTLVTVSSEPKSSDKTHTCPPCPAPEAEGAPSVFLFPPKPKDTLMISRTPEVTCVVVDVSHEDPEVKFNWYVDGVEVHNAKTKPREEQYNSTYRVVSVLTVLHQDWLNGKEYKCKVSNKALPSSIEKTISKAKGQPREPQVYTLPPSREEMTKNQVSLTCLVKGFYPSDIAVEWESNGQPENNYKTTPPVLDSDGSFFLYSKLTVDKSRWQQGNVFSCSVMHEALHNQYTQKSLSLSPG
notes: Humanized VHH-Fc

binding result (mouse DLL3): no binding | EC50 (read off the curve) [2]: ~0.1 nM
B17: 186_zu2 (Fc fusion)
chain: B16 chain with A47K
notes: Humanized VHH-Fc
